Experiments:
[1] = target: His6-DDB1ΔB-His6-CRBN complex (human) (UniProt Q16531); experiment: FP lenalidomide-Atto565 displacement from DDB1ΔB-CRBN, dBET6, with and without BRD4BD2
[2] = target: His6-DDB1ΔB-His6-CRBN complex (human) (UniProt Q16531); experiment: FP lenalidomide-Atto565 displacement from DDB1ΔB-CRBN, dBET23, with and without BRD4BD2
[3] = target: His6-DDB1ΔB-His6-CRBN complex (human) (UniProt Q16531); experiment: FP lenalidomide-Atto565 displacement from DDB1ΔB-CRBN, dBET57, with and without BRD4BD2

Sequence of His6-DDB1ΔB-His6-CRBN complex (human) (Q16531 other isoform, or with tags, fused parts or gaps mutant, chain 1 of 2): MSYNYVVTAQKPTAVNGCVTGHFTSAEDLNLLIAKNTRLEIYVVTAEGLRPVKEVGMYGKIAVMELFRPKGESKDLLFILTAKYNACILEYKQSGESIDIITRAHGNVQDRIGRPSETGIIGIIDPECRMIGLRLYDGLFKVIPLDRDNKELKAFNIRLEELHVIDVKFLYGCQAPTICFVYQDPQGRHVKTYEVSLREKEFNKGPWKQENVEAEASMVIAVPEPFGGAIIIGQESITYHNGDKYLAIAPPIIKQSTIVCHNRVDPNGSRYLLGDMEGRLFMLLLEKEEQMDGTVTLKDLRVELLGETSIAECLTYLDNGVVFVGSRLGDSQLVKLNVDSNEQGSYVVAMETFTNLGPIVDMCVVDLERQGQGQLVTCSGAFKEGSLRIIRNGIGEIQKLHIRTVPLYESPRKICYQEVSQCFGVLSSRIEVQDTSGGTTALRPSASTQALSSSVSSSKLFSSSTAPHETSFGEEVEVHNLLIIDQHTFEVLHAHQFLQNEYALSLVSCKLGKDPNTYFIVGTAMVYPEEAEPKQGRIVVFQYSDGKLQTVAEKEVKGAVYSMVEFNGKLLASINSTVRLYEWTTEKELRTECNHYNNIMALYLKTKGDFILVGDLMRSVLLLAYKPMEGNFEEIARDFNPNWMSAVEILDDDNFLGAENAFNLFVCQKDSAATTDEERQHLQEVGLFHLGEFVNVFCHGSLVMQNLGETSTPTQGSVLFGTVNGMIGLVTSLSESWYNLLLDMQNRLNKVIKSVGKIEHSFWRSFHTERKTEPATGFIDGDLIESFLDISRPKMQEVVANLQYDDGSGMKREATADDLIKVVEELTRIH
Sequence of His6-DDB1ΔB-His6-CRBN complex (human) (Q96SW2 whole entry, stated change not applied, chain 2 of 2, further chain): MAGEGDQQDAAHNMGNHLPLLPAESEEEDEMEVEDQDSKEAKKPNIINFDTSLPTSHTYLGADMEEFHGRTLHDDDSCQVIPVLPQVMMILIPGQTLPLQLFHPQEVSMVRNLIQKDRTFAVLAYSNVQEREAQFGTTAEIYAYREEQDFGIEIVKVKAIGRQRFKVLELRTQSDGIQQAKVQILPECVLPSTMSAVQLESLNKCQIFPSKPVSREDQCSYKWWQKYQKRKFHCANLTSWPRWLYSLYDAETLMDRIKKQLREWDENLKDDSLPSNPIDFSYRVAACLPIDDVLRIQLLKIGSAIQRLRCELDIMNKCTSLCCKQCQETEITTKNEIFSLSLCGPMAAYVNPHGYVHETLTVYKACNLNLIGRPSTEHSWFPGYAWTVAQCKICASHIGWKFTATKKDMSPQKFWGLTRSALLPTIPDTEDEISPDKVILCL

apparent cooperativity factor αapp (IC50[binary]/IC50[ternary]) [1]: 0.2 | apparent cooperativity factor αapp (IC50[binary]/IC50[ternary]) [2]: < 0.1 | apparent cooperativity factor αapp (IC50[binary]/IC50[ternary]) [3]: < 0.1
Substance: BRD4BD2 (second bromodomain of human BRD4) (from UniProt O60885 333-460)
